From patent US20070041901, “Stabilized aptamers to PSMA and their use as prostate cancer therapeutics” (published 2007)

Tests used:
[1] = biological target: T1, PSMA (prostate-specific membrane antigen) extracellular domain (Homo sapiens, UniProt Q04609 SEQ:23-728); assay: FP filter; dot blot, nitrocellulose; max bound 33%
Method: (§1) Dot Blot Binding Analysis. Dot blot binding assays were performed throughout the selections to monitor the protein binding affinity of the pools. For initial pool screening, trace ³²P-labeled pool RNA was combined with PSMA and incubated at room temperature for 30 min in 1×SHMCK buffer pH 7.4 (20 mM Hepes pH 7.4, 120 mM NaCl, 5 mM KCl, 1 mM MgCl₂, […]) plus 0.1 mg/mL tRNA in a final volume of 30 μl. The mixture was applied to a dot blot apparatus (Schleicher and Schuell Minifold-1 Dot Blot, Acrylic, Keene, N.H.), assembled (from top to bottom) with nitrocellulose, nylon, and gel blot membranes. RNA that is bound to protein is captured on the nitrocellulose filter; whereas the non-protein bound RNA is captured on the nylon filter. […] The Round 9 pool was cloned and screened in a single point dot blot assay using 100 nM PSMA (0 nM PSMA was used as a negative control). Clone transcripts were 5′end labeled with ³²-P ATP. Likely binders were than assayed for KD determination by the blot assay conditions described directly above, but without tRNA, using an 8 point PSMA titration with a constant RNA concentration. […] Both of the clones screened were unique sequences in the Round 9 selection pool.
(§2) In order to identify the core structural elements required for ARC955 binding to PSMA, the 3′-boundaries of the clone was determined through alkaline hydrolysis.

[2] = biological target: T1, PSMA (prostate-specific membrane …); assay: filter; dot blot; max bound 52%
Method: as §1, §2

[3] = biological target: T1, PSMA (prostate-specific membrane …); assay: filter; dot blot without tRNA; conditions: hairpin with conserved 16-nt loop, A-rich asymmetric bulge
[4] = biological target: T1, PSMA (prostate-specific membrane …); assay: inhibition; NAALADase inhibition, 40 mM Tris pH 7.4, 0.1 mM ZnSO4, 37 C; conditions: hairpin with conserved 16-nt loop, A-rich asymmetric bulge
[5] = biological target: T1, PSMA (prostate-specific membrane …); assay: filter; dot blot, 1x SHMCK pH 7.4 (1 mM Mg, Ca), room temp, no tRNA; conditions: label: 32P 5'-end
[6] = biological target: T1, PSMA (prostate-specific membrane …); assay: filter; dot blot; max bound 22%
Method: as §1, §2

[7] = biological target: T1, PSMA (prostate-specific membrane …); assay: filter; no binding in dot blot
Method: as §1, §2

T1 sequence (Q04609 45-750): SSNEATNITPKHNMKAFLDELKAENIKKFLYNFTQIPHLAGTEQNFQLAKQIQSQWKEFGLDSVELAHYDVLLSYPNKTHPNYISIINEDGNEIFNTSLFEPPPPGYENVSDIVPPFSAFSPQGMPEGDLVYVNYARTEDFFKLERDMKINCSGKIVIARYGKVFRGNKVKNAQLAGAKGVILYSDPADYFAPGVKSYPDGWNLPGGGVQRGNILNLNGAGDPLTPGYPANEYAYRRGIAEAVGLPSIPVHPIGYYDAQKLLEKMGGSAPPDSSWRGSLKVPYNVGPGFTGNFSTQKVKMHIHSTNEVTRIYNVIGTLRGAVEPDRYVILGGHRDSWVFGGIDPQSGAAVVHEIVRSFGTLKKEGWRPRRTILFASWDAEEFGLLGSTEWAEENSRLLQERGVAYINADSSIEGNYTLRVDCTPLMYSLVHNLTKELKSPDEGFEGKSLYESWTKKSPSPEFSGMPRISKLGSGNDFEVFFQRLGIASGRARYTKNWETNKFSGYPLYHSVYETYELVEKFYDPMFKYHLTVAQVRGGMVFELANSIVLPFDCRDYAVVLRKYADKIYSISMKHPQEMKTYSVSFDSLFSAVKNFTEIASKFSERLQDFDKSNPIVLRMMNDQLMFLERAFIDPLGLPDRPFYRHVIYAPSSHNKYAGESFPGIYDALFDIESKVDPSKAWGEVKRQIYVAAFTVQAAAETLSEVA

With GGGUGGCUGGGAGGGGAAGAGGG (ssRNA, 2'-OMe A, C, U; 2'-OH G (rGmH)) [ARC1088] the Kd [1] was 2.1 nM.

Binder AGAGGAGAGAACGUUCUACUAUGGGUGGCUGGGAGGGG (ssRNA, 2'-OMe A, C, U; 2'-OH G (rGmH)) [ARC1091] has a Kd [2] of 3.1 nM.

With GGAGGACCGAAAAAGACCUGACUUCUAUACUAAGUCUACGUUCCUCCA (ssRNA, 2'-F C and U; 2'-OH A and G) [ARC591] the Kd [3] was 3.4 nM and the IC50 [4] was 6.7 nM.

B1: ARC955 (G2) (ssRNA)
RNA: GGGAGAGGAGAGAACGUUCUACUAUGGGUGGCUGGGAGGGGAAGAGGGAGUAGGUCGAUCGAUCGAUCAUCGAUG
modifications: 2'-OMe A, C, U; 2'-OH G (rGmH)
Binder B1 has a Kd [5] of 9 nM.

With CUACUGGGUGGCUGGGAGGGGAAGAGGGAGUAG (ssRNA, 2'-OMe A, C, U; 2'-OH G (rGmH)) [ARC1089] the Kd [6] was 9.3 nM.

B2: ARC956 (G8) (ssRNA)
RNA: GGGGAGAGGAGAGAACGUUCUACACAUGGGUCGGGUGAGUGGCAAAGGAAUAGGUCGAUCGAUCGAUCAUCGAUG
modifications: 2'-OMe A, C, U; 2'-OH G (rGmH)
Binder B2 has a Kd [5] of 16 nM.

CUACUACACAUGGGUCGGGUGAGUGGCAAAGGAAUAGUAG (ssRNA, 2'-OMe A, C, U; 2'-OH G (rGmH)) [ARC725]: no binding [7].
